The test has as its target GST-LOV2GIVe (L) (Avena sativa | , UniProt O49003).

B1: His-Gαi3 (natural protein)
chain: MGCTLSAEDKAAVERSKMIDRNLREDGEKAAKEVKLLLLGAGESGKSTIVKQMKIIHEDGYSEDECKQYKVVVYSNTIQSIIAIIRAMGRLKIDFGEAARADDARQLFVLAGSAEEGVMTSELAGVIKRLWRDGGVQACFSRSREYQLNDSASYYLNDLDRISQTNYIPTQQDVLRTRVKTTGIVETHFTFKELYFKMFDVGGQRSERKKWIHCFEGVTAIIFCVALSDYDLVLAEDEEMNRMHESMKLFDSICNNKWFTDTSIILFLNKKDLFEEKIKRSPLTICYPEYTGSNTYEEAAAYIQCQFEDLNRRKDTKEVYTHFTCATDTKNVQFVFDAVTDVIIKNNLKECGLY
In turn, B1 registered a Kd of 270 nM. This counts as sub-micromolar.

(Values after article doi:10.1101/2020.08.17.253781 (2020).)
